Results on two molecules are retold here after patent publication US20250250335A1 (SHENGHE CHINA BIOPHARMACEUTICAL, published 2025).

Common to all, as to experiment: SPR (Biacore), antibody captured on CM5 chip, antigen as analyte, 1:1 model
In general terms: Surface plasmon resonance follows binding to a sensor surface in real time, without labels.

Experiment [1] deals with T1, Human-CEACAM6 (AB)-His (human, UniProt P40199 145-314).
T1 construct: Made in house, purified on a nickel column
The procedure: (§1) The CM5 sensor chip was activated at a flow rate of 10 μL/min for 420 seconds. The channel was then injected with 30 μg/mL of anti-rat Fc IgG in 10 mM NaAc (pH 4.5) at a flow rate of 10 μL/min. The chip was inactivated with 1 M ethanolamine-hydrochloric acid (GE) for 420 seconds at a flow rate of 10 μL/min.
(§2) Candidate antibodies in running buffer 1×HBS-EP+ (10 mM HEPES, 150 mM NaCl, 3 mM EDTA, 0.05% Tween 20, pH 7.4) were captured onto Fc2 with anti-rat Fc IgG at a flow rate of 10 μL/min. The 10 nM human CEACAM5-his protein or CEACAM-6-his or CEACAM6 (AB)-his protein and running buffer were sequentially injected into Fc1-Fc2 at a flow rate of […], bound for 180 seconds, and then dissociated for 3600 seconds. 10 mM glycine (pH 1.5) was injected as regeneration buffer after each dissociation.
(§3) Result plots for the reference channel Fc1 and the buffer channel were subtracted from the test result plots. The experimental data fit the 1:1 binding model. The molecular weight of 110 KDa was used to calculate the molar concentration of CEACAM5 protein, 55 KDa for human CEACAM6-his, and 55 KDa for human CEACAM6 (AB)-his.

Experiment [2] deals with T2, human CEACAM5-his (ACRO CE5-H5226) (human, UniProt P06731 35-685).
T2 construct: Bought protein; not shown: His tag
T2 sequence (looked up): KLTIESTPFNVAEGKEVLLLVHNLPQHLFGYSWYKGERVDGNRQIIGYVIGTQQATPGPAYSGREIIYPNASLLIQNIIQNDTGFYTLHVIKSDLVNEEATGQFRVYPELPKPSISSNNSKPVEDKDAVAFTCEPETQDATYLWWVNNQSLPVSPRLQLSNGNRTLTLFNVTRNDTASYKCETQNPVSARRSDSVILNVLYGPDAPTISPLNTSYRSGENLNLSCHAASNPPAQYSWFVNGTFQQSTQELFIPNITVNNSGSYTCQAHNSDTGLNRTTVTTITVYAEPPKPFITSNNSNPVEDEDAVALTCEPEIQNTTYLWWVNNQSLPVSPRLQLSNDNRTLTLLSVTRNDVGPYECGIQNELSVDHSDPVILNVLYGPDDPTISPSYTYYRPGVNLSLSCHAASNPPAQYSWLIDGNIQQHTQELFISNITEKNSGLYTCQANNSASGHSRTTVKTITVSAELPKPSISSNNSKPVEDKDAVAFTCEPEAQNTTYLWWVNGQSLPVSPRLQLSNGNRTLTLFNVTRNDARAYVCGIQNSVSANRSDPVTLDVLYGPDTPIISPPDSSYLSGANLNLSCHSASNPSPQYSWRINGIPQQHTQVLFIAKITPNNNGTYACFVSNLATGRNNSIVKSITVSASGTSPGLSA
The procedure: as §1, §2, §3

Experiment [3] concerns the target T3, human CEACAM6-his (ACRO CE6-H5223) (human, UniProt P40199 35-320).
T3 construct: Bought protein; not shown: His tag
T3 sequence (looked up): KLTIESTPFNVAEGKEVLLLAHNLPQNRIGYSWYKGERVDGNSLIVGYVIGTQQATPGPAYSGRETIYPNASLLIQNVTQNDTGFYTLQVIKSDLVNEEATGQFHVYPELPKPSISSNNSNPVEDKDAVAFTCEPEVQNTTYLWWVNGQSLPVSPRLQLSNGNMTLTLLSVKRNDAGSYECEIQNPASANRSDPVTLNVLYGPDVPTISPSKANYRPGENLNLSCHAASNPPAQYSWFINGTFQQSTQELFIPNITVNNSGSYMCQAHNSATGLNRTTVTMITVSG
How it is done:
as §1, §2, §3

T1 sequence (P40199 other isoform, or with tags, fused parts or gaps limits assumed): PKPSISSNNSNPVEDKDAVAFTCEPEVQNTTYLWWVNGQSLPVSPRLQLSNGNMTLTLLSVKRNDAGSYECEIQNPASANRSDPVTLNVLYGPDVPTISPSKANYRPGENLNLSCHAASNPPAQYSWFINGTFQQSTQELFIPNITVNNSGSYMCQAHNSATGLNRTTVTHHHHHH

B1: Antibody B (antibody, human IgG1, kappa, V domains shown)
VH: EVQLVESGGGLVQPGGSLRLSCAASEFTLIDYYMSWVRQAPGKGLEWVGYIRNKVNGHTTDYIASVKGRFTISRDDSKNSLYLQMNSLKTEDTAVYYCARDPGINWYFDVWGQGTLVTVSS
VL: EIVLTQSPATLSLSPGERATLSCRASSRVTYMHWYQQKPGQSPRPLISATSNLASGIPARFSGSGSGTDYTLTISSLEPEDFAVYYCQQWSYNPPTFGGGTKLELKR
notes: Humanized form of mouse-derived antibody 2 on a human IgG framework; also called humanized antibody B
One may read the Kd as the equilibrium constant for the complex coming apart. B1: the results for the Kd in experiment [1], in experiment [2] and in experiment [3] were 117 nM, < 0.001 nM and 19.7 nM, respectively.

B2: Antibody 15 (antibody, V domains shown)
VH: QVQLQQPGAELVKPGASVTLSCKASGYTFTSYWINWVKQRPGQGLEWIGNIYPYTSSSNYNEKFKGKATLTVDTSSNTAYMQLSGLTSDDSAVYFCARKGNIYYSYESYPLDFWGQGTSVTVSS
VL: DIQMTQSSSSFSVSLGDRVTITCKASEDIYKQIGWYQQKPGNAPRLLIAGATSLETGVPSRFSGSGSGKDYMLNITSLQTEDVGSYYCQQYWSPPFTFGSGTKLEIK
notes: Mouse-derived hybridoma antibody; also called mouse-derived antibody 15
On to B2, for which the Kd in experiment [1] was < 0.001 nM; in experiment [2], 7.64 nM; in experiment [3] it was 3.83 nM.
